Source: paper PMC5586245, “2017 publication guidelines for structural modelling of small-angle scattering data from biomolecules in solution: an update” (Acta Crystallographica. Section D, Structural Biology, 2017)

Target: the molecule itself
Assay: SEC-SAXS; inline SEC (5 x 150 mm Superdex S200, 0.45 ml/min) with SAXS at the Australian Synchrotron SAXS/WAXS beamline, sheath-flow cell; 25 mM MOPS, 250 mM NaCl, 50 mM KCl, 2 mM TCEP, 0.1% NaN3 pH 7.5; 22 °C; mass from I(0), Porod volume and fit of crystal structures

B1: glucose isomerase (enzyme)
chain: not shown
notes: glucose isomerase (xylose isomerase), Streptomyces rubiginosus, UniProt P24300 residues 2-388; Tetramer; M from chemical composition 172912 Da for the tetramer; also called GI; GI (tetramer); source: bought: Hampton Research (HR7-100); stored in diluted form, repeated freeze-thaw cycles; no purification step before the SEC-SAXS column
stoichiometry N: 4
